# From US20210008201A1, “ANTIBODIES FOR EPIDERMAL GROWTH FACTOR RECEPTOR 3 (HER3)” (NOVARTIS AG, priority 2011, published 2021)
# Residue numbers refer to the chain shown, from its start.
# B1: MOR09824: anti-HER3 human antibody, IgG1/kappa; VH SEQ ID NO: 33, VL SEQ ID NO: 32 (antibody, V domains shown)
# VH: QVQLVESGGGLVQPGGSLRLSCAASGFTFSSYAMSWVRQAPGKGLEWVSVISAWGHVKYYADSVKGRFTISRDNSKNTLYLQMNSLRAEDTAVYYCARWGDEGFDIWGQGTLVTVSS
# VL: DIQMTQSPSSLSASVGDRVTITCRASQGISNWLAWYQQKPGKAPKLLIYGASSLQSGVPSRFSGSGSGTDFTLTISSLQPEDFAVYYCQQYSSFPTTFGQGTKVEIK
# B2: MOR12610: anti-HER3 human antibody, IgG1/kappa; VH SEQ ID NO: 375, VL SEQ ID NO: 374 (antibody, V domains shown)
# VH: QVQLVESGGGLVQPGGSLRLSCAASGFTFSSYAMSWVRQAPGKGLEWVSGTGPYGGTYYPDSVKGRFTISRDNSKNTLYLQMNSLRAEDTAVYYCARWGDEGFDIWGQGTLVTVSS
# VL: B1 VL
# B3: MOR12609: anti-HER3 human antibody, IgG1/kappa; VH SEQ ID NO: 357, VL SEQ ID NO: 356 (antibody, V domains shown)
# VH: B1 VH with S52N, A53G, W54L, H56Y, V57T, K58T, Y59F
# VL: B1 VL
# B4: MOR09974: anti-HER3 human antibody, IgG1/kappa; VH SEQ ID NO: 69, VL SEQ ID NO: 68 (antibody, V domains shown)
# VH: B1 VH with S52N, A53P, W54S, H56N, V57F, K58T, Y59N
# VL: B1 VL
# B5: MOR10701: anti-HER3 human antibody, IgG1/kappa; VH SEQ ID NO: 105, VL SEQ ID NO: 104 (antibody, V domains shown)
# VH: B1 VH with Q1E, V5L, I51T, S52G, W54V, H56R, V57S, K58T, A61P
# VL: B1 VL with V85T
# B6: MOR10702: anti-HER3 human antibody, IgG1/kappa; VH SEQ ID NO: 123, VL SEQ ID NO: 122 (antibody, V domains shown)
# VH: B1 VH with Q1E, V5L
# VL: B1 VL with V85T
# Legend:
# [1] = tested on: HER3 phosphorylation in MCF7 cells; assay: Phospho-HER3 in vitro cell assay, neuregulin stimulated MCF7 cells; type: cell-based, human; settings: both ligand-dependent and ligand-independent manner; summary of cell signaling assays
# Description: MCF-7 cells were routinely maintained in DMEM/F12, 15 mM HEPES, L-glutamine, 10% FCS and SK-Br-3 in McCoy's 5a, 10% FCS, 1.5 mM L-glutamine. Sub-confluent MCF7 or SK-Br-3 cells grown in complete media were harvested with accutase (PAA Laboratories) and resuspended in the appropriate growth media at a final concentration of […]. 100 μL of cell suspension was then added to each well of a 96-well flat bottomed plate (Nunc) to give a final density of 5×10^4 cells/well. MCF7 cells were allowed to attach for approximately 3 hours before the media was exchanged for starvation media containing 0.5% FBS. All plates were then incubated overnight at 37° C. prior to treatment with the appropriate concentration of HER3 antibodies (diluted in the appropriate media) for 80 minutes at 37° C. MCF7 cells were treated with 50 ng/mL neuregulin 1-β1 EGF domain (R&D Systems) for the final 20 minutes to stimulate HER3 phosphorylation. All media was gently aspirated and the cells washed with ice-cold PBS containing 1 mM CaCl2) and 0.5 mM MgCl2 (Gibco). The cells were lysed by adding 50 μL ice-cold lysis buffer (20 mM Tris (pH8.0)/137 mM NaCl/10% Glycerol/2 mM EDTA/1% NP-40/1 mM sodium orthovanadate/, Aprotinin (10 μg/mL)/Leupeptin (10 μg/mL)) and incubated on ice with shaking for 30 minutes. Lysates were then collected and spun at 1800 g for 15 minutes at 4° C. to remove cell debris. 20 μL of lysate was added to a pre-prepared capture plate.
# HER3 was captured from the lysate by incubating the plate at room temperature for one hour with shaking before the lysate was aspirated and the wells washed with 1× Tris buffer (Mesoscale Discovery)/0.1% Tween-20. Phosphorylated HER3 was detected using 0.75 μg/mL biotinylated anti-phosphotyrosine antibody (R&D Systems) prepared in 1% BSA/1× Tris/0.1% Tween-20 by incubating with shaking at room temperature for 1 hour. The wells were washed four times with 1× Tris/0.1% Tween-20 and biotinylated proteins were detected by incubating with S-Tag labelled Streptavidin (Mesoscale Discovery) diluted in 1% BSA/1× Tris/0.1% Tween-20 for one hour at room temperature. Each well was aspirated and washed four times with 1× Tris/0.1% Tween-20 before adding 20 μL of Read buffer T with surfactant (Mesoscale Discovery) and the signal quantified using a Mesoscale Sector Imager. Antibodies MOR06391 or MOR03207 were included in signalling experiments as isotype controls.
# BT-474 xenografts = assay: In vivo BT-474 efficacy studies; parameters: species or system female athymic nu/nu Balb/C mice; settings: antibody 20 mg/kg in combination with sub-optimal trastuzumab 1 mg/kg
# Description: BT-474 cells were cultured in DMEM containing 10% heat-inactivated fetal bovine serum without antibiotics until the time of implantation.
# One day before cell inoculation, female athymic nu/nu Balb/C mice (Harlan Laboratories) were implanted subcutaneously with a sustained release 17β-estradiol pellet (Innovative Research of America) to maintain serum estrogen levels. One day after 17β-estradiol pellet implantation, 5×10^6 cells were injected orthotopically into the 4th mammary fatpad in a suspension containing 50% phenol red-free matrigel (BD Biosciences) in Hank's balanced salt solution. The total injection volume containing cells in suspension was 200 μL. 20 days following cell implantation animals with a tumor volume of approximately 200 mm^3 were enrolled in the efficacy study. In general, a total of 10 animals per group were enrolled in efficacy studies.
# An initial loading dose of 40 mg/kg was given for the first dose. […] For the duration of the studies, tumor volume was measured by calipering twice per week. Percent treatment/control (T/C) values were calculated using the following formula: […]
# Body weight was measured twice per week and dose was body weight adjusted. The % change in body weight was calculated as (BWcurrent−BWinitial)/(BWinitial)×100. […]
# All data were expressed as mean standard error of the mean (SEM). […]
# BxPC3 tumors = assay: In vivo BxPC3 efficacy studies; parameters: species or system female athymic nu/nu Balb/C mice; settings: BxPC3 tumor growth model
# Description: BxPC3 cells were cultured in RPMI-1640 medium containing 10% heat-inactivated fetal bovine serum without antibiotics until the time of implantation.
# Female athymic nu/nu Balb/C mice (Harlan Laboratories) were implanted subcutaneously with 10×10^6 cells in a mixture of 50% phosphate buffered saline with 50% matrigel. The total injection volume containing cells in suspension was 200 μL. Once tumors had reached approximately 200 mm^3 in size, animals were enrolled in the efficacy study. In general, a total of 10 animals per group were enrolled in studies.
# Animals were dosed intravenously via lateral tail vein injection. An initial loading dose of 40 mg/kg was given for the first dose. After the initial dose, animals were on a 20 mg/kg, every other day schedule for the duration of the study (25 days under treatment). Tumor volume and T/C values were calculated as previously detailed.
Molecule,inhibition of cellular HER3 activity [1],% T/C (BT-474 xenografts),inhibition of ligand driven tumor growth (BxPC3 tumors)
B1,capable of inhibiting cellular HER3 activity,,
B2,capable of inhibiting cellular HER3 activity,,
B3,capable of inhibiting cellular HER3 activity,,
B4,capable of inhibiting cellular HER3 activity,,
B5,capable of inhibiting cellular HER3 activity,−50%,very effectively inhibited ligand driven tumor growth
B6,capable of inhibiting cellular HER3 activity,,
